Laboratory results as given in publication PMC9482650, “Quantitative fragmentomics allow affinity mapping of interactomes” (Nature Communications, 2022).

T1: LNX2_3, Q8N448
T1 sequence (Q8N448 463-564, limits assumed, looked up): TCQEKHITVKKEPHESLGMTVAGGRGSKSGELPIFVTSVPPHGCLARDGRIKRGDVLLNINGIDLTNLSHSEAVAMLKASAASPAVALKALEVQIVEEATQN

T2: TJP3_3, O95049
T2 sequence (O95049 375-456, limits assumed, looked up): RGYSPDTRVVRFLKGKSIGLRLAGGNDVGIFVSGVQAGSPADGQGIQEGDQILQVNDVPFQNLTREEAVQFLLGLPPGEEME

T3: ARHGEF11, O15085
T3 sequence (O15085 42-136, limits assumed, looked up): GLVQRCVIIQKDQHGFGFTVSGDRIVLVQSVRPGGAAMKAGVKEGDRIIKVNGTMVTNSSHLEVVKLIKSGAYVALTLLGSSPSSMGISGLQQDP

T4: SHANK1, Q9Y566
T4 sequence (Q9Y566 658-767, limits assumed, looked up): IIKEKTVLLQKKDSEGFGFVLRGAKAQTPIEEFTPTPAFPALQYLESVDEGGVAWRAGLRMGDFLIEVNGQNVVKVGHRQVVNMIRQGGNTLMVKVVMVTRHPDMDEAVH

T5: APBA1_1, Q02410
T5 sequence (Q02410 651-752, limits assumed, looked up): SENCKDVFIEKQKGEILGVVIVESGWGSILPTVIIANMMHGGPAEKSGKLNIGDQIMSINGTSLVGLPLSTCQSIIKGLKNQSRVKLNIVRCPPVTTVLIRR

T6: RAPGEF6, Q8TEU7
T6 sequence (Q8TEU7 525-625, limits assumed, looked up): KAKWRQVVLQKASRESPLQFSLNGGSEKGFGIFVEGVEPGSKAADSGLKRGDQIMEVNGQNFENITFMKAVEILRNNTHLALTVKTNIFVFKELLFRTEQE

T7: LIN7C, Q9NUP9
T7 sequence (Q9NUP9 88-185, limits assumed, looked up): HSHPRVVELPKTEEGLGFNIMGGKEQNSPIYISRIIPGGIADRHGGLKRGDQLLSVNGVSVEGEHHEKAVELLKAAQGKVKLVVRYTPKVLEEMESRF

T8: LRRC7, Q96NW7
T8 sequence (Q96NW7 1440-1537, limits assumed, looked up): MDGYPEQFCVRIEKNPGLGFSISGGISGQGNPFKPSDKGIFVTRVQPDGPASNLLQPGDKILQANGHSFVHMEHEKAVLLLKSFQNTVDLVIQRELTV

T9: APBA1_2, Q02410
T9 sequence (Q02410 742-832, limits assumed, looked up): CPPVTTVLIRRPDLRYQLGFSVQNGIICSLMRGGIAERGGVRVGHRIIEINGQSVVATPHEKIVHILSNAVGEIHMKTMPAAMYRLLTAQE

T10: ARHGAP21, Q5T5U3
T10 sequence (Q5T5U3 45-169, limits assumed, looked up): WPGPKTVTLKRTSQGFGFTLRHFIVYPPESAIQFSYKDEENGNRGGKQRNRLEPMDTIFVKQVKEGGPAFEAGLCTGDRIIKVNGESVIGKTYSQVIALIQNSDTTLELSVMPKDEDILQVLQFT

B1: PTH1R, Q03431 (peptide)
chain: LLQEEWETVM

target: T1, LNX2_3, Q8N448; experiment: holdup assay; set-up: key: below the threshold = too weak to quantify, mostly under pKd 3.1 to 4; settings: plain residues with an end cap or a label only (N-terminal biotin on a linker: ado-ado)

Q: With B1 as the binder, how does the pKd read?
A: The pKd was “below the threshold”.

target: MAGI2_4, Q86UL8; experiment: holdup assay; set-up: key: below the threshold = too weak to quantify, mostly under pKd 3.1 to 4; settings: plain residues with an end cap or a label only (N-terminal biotin on a linker: ado-ado)
Sequence (Q86UL8 772-865): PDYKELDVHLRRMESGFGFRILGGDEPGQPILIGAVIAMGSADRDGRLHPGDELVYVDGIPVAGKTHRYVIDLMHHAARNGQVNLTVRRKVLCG

Q: B1 was tested. Which pKd did it give?
A: The pKd was “below the threshold”.

target: DLG4_1, P78352; experiment: holdup assay; set-up: key: below the threshold = too weak to quantify, mostly under pKd 3.1 to 4; settings: plain residues with an end cap or a label only (N-terminal biotin on a linker: ado-ado)
Sequence (P78352 62-152): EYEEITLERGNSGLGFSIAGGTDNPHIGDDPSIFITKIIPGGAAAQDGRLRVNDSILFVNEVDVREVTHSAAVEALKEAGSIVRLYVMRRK

Q: Which pKd does the source give for B1 here?
A: The pKd was “below the threshold”.

target: T2, TJP3_3, O95049; experiment: holdup assay; set-up: key: below the threshold = too weak to quantify, mostly under pKd 3.1 to 4; settings: plain residues with an end cap or a label only (N-terminal biotin on a linker: ado-ado)

Q: With B1 as the binder, how does the pKd read?
A: Its pKd is “below the threshold”.

target: FRMPD2_2, Q68DX3; experiment: holdup assay; set-up: key: below the threshold = too weak to quantify, mostly under pKd 3.1 to 4; settings: plain residues with an end cap or a label only (N-terminal biotin on a linker: ado-ado)
Sequence (Q68DX3 944-1038): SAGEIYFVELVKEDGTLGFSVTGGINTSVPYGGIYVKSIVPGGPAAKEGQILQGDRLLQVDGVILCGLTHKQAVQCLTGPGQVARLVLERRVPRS

Q: How did the pKd turn out when B1 was run?
A: The pKd was “below the threshold”.

target: T3, ARHGEF11, O15085; experiment: holdup assay; set-up: key: below the threshold = too weak to quantify, mostly under pKd 3.1 to 4; settings: plain residues with an end cap or a label only (N-terminal biotin on a linker: ado-ado)

Q: With B1 as the binder, how does the pKd read?
A: Its pKd is 3.81.

target: T4, SHANK1, Q9Y566; experiment: holdup assay; set-up: key: below the threshold = too weak to quantify, mostly under pKd 3.1 to 4; settings: plain residues with an end cap or a label only (N-terminal biotin on a linker: ado-ado)

Q: With B1 as the binder, how does the pKd read?
A: The pKd was 4.85.

target: PARD3_3, Q8TEW0; experiment: holdup assay; set-up: key: below the threshold = too weak to quantify, mostly under pKd 3.1 to 4; settings: plain residues with an end cap or a label only (N-terminal biotin on a linker: ado-ado)
Sequence (Q8TEW0 582-685): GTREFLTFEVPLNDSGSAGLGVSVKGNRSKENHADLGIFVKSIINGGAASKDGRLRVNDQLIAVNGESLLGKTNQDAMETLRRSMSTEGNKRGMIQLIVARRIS

Q: With B1 as the binder, how does the pKd read?
A: The pKd was 4.33.

target: SCRIB_2, Q14160; experiment: holdup assay; set-up: key: below the threshold = too weak to quantify, mostly under pKd 3.1 to 4; settings: plain residues with an end cap or a label only (N-terminal biotin on a linker: ado-ado)
Sequence (Q14160 857-960): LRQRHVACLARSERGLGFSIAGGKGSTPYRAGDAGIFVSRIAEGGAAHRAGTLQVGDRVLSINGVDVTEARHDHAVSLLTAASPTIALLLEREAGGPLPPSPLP

Q: B1 was tested. Which pKd did it give?
A: Its pKd is “below the threshold”.

target: NHERF4_2, Q86UT5; experiment: holdup assay; set-up: key: below the threshold = too weak to quantify, mostly under pKd 3.1 to 4; settings: plain residues with an end cap or a label only (N-terminal biotin on a linker: ado-ado)
Sequence (Q86UT5 220-308): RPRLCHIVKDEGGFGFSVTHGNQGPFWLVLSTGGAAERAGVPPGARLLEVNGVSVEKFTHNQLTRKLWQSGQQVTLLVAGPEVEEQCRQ

Q: Which pKd does the source give for B1 here?
A: Its pKd is “below the threshold”.

target: T5, APBA1_1, Q02410; experiment: holdup assay; set-up: key: below the threshold = too weak to quantify, mostly under pKd 3.1 to 4; settings: plain residues with an end cap or a label only (N-terminal biotin on a linker: ado-ado)

Q: For B1, which pKd is on record?
A: The pKd was “below the threshold”.

target: GRID2IP_1, A4D2P6; experiment: holdup assay; set-up: key: below the threshold = too weak to quantify, mostly under pKd 3.1 to 4; settings: plain residues with an end cap or a label only (N-terminal biotin on a linker: ado-ado)
Sequence (A4D2P6 1-87): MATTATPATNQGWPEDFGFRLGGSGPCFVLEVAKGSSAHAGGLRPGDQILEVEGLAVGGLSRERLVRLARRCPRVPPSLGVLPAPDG

Q: Which pKd does the source give for B1 here?
A: Its pKd is “below the threshold”.

target: Inadl_4, Q8NI35; experiment: holdup assay; set-up: key: below the threshold = too weak to quantify, mostly under pKd 3.1 to 4; settings: plain residues with an end cap or a label only (N-terminal biotin on a linker: ado-ado)
Sequence (Q8NI35 547-651): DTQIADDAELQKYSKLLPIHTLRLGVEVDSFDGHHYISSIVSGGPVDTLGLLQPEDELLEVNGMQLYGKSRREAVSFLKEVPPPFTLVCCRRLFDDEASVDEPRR

Q: With B1 as the binder, how does the pKd read?
A: Its pKd is “below the threshold”.

target: PTPN3, P26045; experiment: holdup assay; set-up: key: below the threshold = too weak to quantify, mostly under pKd 3.1 to 4; settings: plain residues with an end cap or a label only (N-terminal biotin on a linker: ado-ado)
Sequence (P26045 505-587): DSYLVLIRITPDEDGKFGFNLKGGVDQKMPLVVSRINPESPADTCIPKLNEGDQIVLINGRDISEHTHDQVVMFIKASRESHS

Q: For B1, which pKd is on record?
A: Its pKd is 4.92.

target: DLG2_3, Q15700; experiment: holdup assay; set-up: key: below the threshold = too weak to quantify, mostly under pKd 3.1 to 4; settings: plain residues with an end cap or a label only (N-terminal biotin on a linker: ado-ado)

Q: Which pKd does the source give for B1 here?
A: The pKd was “below the threshold”.

target: NHERF4_1, Q86UT5-2; experiment: holdup assay; set-up: key: below the threshold = too weak to quantify, mostly under pKd 3.1 to 4; settings: plain residues with an end cap or a label only (N-terminal biotin on a linker: ado-ado)
Sequence (Q86UT5 other isoform, or with tags, fused parts or gaps): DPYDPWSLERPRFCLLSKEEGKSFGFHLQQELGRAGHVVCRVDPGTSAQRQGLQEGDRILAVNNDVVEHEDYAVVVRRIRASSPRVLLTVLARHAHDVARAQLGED

Q: Which pKd does the source give for B1 here?
A: The pKd was 3.56.

target: Inadl_2, Q8NI35; experiment: holdup assay; set-up: key: below the threshold = too weak to quantify, mostly under pKd 3.1 to 4; settings: plain residues with an end cap or a label only (N-terminal biotin on a linker: ado-ado)
Sequence (Q8NI35 238-335): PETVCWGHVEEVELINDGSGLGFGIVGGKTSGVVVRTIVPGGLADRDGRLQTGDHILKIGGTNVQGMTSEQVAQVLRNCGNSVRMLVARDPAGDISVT

Q: Which pKd does the source give for B1 here?
A: The pKd was “below the threshold”.

target: Inadl_8, Q8NI35; experiment: holdup assay; set-up: key: below the threshold = too weak to quantify, mostly under pKd 3.1 to 4; settings: plain residues with an end cap or a label only (N-terminal biotin on a linker: ado-ado)
Sequence (Q8NI35 1425-1530): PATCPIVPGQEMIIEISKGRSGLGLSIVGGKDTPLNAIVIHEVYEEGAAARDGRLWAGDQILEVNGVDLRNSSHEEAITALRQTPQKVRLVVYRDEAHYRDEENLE

Q: For B1, which pKd is on record?
A: The pKd was “below the threshold”.

target: T6, RAPGEF6, Q8TEU7; experiment: holdup assay; set-up: key: below the threshold = too weak to quantify, mostly under pKd 3.1 to 4; settings: plain residues with an end cap or a label only (N-terminal biotin on a linker: ado-ado)

Q: With B1 as the binder, how does the pKd read?
A: The pKd was “below the threshold”.

target: MAGI2_3, Q86UL8; experiment: holdup assay; set-up: key: below the threshold = too weak to quantify, mostly under pKd 3.1 to 4; settings: plain residues with an end cap or a label only (N-terminal biotin on a linker: ado-ado)
Sequence (Q86UL8 600-682): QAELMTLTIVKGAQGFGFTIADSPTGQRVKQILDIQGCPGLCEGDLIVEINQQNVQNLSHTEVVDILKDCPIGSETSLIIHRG

Q: How did the pKd turn out when B1 was run?
A: The pKd was 3.59.

target: FRMPD2_1, Q68DX3; experiment: holdup assay; set-up: key: below the threshold = too weak to quantify, mostly under pKd 3.1 to 4; settings: plain residues with an end cap or a label only (N-terminal biotin on a linker: ado-ado)
Sequence (Q68DX3 770-861): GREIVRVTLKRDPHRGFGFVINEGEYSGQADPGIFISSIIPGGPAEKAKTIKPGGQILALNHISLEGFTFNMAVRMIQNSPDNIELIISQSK

Q: B1 was tested. Which pKd did it give?
A: Its pKd is “below the threshold”.

target: T7, LIN7C, Q9NUP9; experiment: holdup assay; set-up: key: below the threshold = too weak to quantify, mostly under pKd 3.1 to 4; settings: plain residues with an end cap or a label only (N-terminal biotin on a linker: ado-ado)

Q: With B1 as the binder, how does the pKd read?
A: The pKd was “below the threshold”.

target: LDB3, O75112; experiment: holdup assay; set-up: key: below the threshold = too weak to quantify, mostly under pKd 3.1 to 4; settings: plain residues with an end cap or a label only (N-terminal biotin on a linker: ado-ado)
Sequence (O75112 1-94): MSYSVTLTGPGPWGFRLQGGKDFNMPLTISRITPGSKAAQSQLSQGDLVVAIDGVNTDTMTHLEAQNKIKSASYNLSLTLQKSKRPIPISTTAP

Q: Which pKd does the source give for B1 here?
A: The pKd was “below the threshold”.

target: PDLIM1, O00151; experiment: holdup assay; set-up: key: below the threshold = too weak to quantify, mostly under pKd 3.1 to 4; settings: plain residues with an end cap or a label only (N-terminal biotin on a linker: ado-ado)
Sequence (O00151 1-87): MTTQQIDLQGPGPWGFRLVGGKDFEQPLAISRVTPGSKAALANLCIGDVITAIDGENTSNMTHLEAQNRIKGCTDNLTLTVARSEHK

Q: How did the pKd turn out when B1 was run?
A: Its pKd is “below the threshold”.

target: T8, LRRC7, Q96NW7; experiment: holdup assay; set-up: key: below the threshold = too weak to quantify, mostly under pKd 3.1 to 4; settings: plain residues with an end cap or a label only (N-terminal biotin on a linker: ado-ado)

Q: Which pKd does the source give for B1 here?
A: The pKd was “below the threshold”.

target: T9, APBA1_2, Q02410; experiment: holdup assay; set-up: key: below the threshold = too weak to quantify, mostly under pKd 3.1 to 4; settings: plain residues with an end cap or a label only (N-terminal biotin on a linker: ado-ado)

Q: For B1, which pKd is on record?
A: The pKd was “below the threshold”.

target: MAGI3_2, Q5TCQ9; experiment: holdup assay; set-up: key: below the threshold = too weak to quantify, mostly under pKd 3.1 to 4; settings: plain residues with an end cap or a label only (N-terminal biotin on a linker: ado-ado)
Sequence (Q5TCQ9 398-503): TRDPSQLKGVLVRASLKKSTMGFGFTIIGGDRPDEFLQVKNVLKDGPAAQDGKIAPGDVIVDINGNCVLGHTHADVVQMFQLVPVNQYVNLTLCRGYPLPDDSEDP

Q: B1 was tested. Which pKd did it give?
A: The pKd was “below the threshold”.

target: T10, ARHGAP21, Q5T5U3; experiment: holdup assay; set-up: key: below the threshold = too weak to quantify, mostly under pKd 3.1 to 4; settings: plain residues with an end cap or a label only (N-terminal biotin on a linker: ado-ado)

Q: Which pKd does the source give for B1 here?
A: Its pKd is 4.11.
